# In the nanobody polyreactivity screen of Harvey et al. (2022):
# Test: yeast display, Sf9 membrane polyspecificity reagent, FACS + sequencing; frameworks hold sequencing errors
# Procedure, shortened: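 A synthetic nanobody library was expressed on Saccharomyces cerevisiae BJ5465 by galactose induction for 36–48 hours. The library was stained for 1 hour at 4 °C with 10% biotinylated, detergent-solubilized Sf9 membrane reagent and enriched with streptavidin microbeads before FACS. Low and high (top ~1%) gates were set on anti-HA fluorescence for expression and streptavidin fluorescence for reagent binding, and each polyreactivity label reflects the gate of origin.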
row,Sequence,polyreactivity (PSR sort gate)
1,QVQLVESGGGLVQAGGSLRLSCAASGRTFGRYAMGWYRPAPGKERELVAAIRWTGGGTYYADSVKGRFTISRDNAKNTVYLQMNSLKPEDTAVYYCAADDYYYSVYRYEYWGEGTQVTVSS,high polyreactivity
2,QVQLVESGGGLVQAGGSLRLSCAASGRTFGRYAMGWYRQAPGKERELVAAINSGSASTYYADSVKGRFTISRDNAKNTVYLEMNSLKPEDPAVYYCAKRVQQSTWYGYGIGYEYWGQGTQVTVSS,high polyreactivity
3,QVQLVESGGGLVQAGGSLRLSCAASGRTFGRYAMGWYRQAPGKERELVAAISSSGGRTNYADSVKGRFTISRDNAKNTVYLQMNSLKPEDTAVYYCAAAGQRPYEKGDYWGQGTQVTVSS,low polyreactivity
4,QVQLVESGGGLVQAGGSLRLSCAASGRTFGRYAMGWYRQAPGKERELVAAISWRGSSTSYADSVKGRFTISRDNAKNTVYLQMNSLKPEDTSVYYCNAKRSGGYGGYDYWGQGTQVTVSS,high polyreactivity
5,QVQLVESGGGLVQAGGSLRLSCAASGRTFGRYAMGWYRQAPGKERELVAAITRGGGSTYYADSVKGRFTISRDNAKNTVYLQMNSLKPEDTAVYYCAARNFRSPYGYDYWGQGTQVTVSS,high polyreactivity
6,QVQLVESGGGLVQAGGSLRLSCAASGRTFGRYAMGWYRQAPGKERELVATISSRGGNTYYADSVKGRFTISRDNAKNTVFLQMNSLKPEDTAVYYCAADVYSSDYDYWGQGTQVNVSS,high polyreactivity
7,QVQLVESGGGLVQAGGSLRLSCAASGRTFGRYAMGWYRQAPGKERELVATISSRGGNTYYADSVKGRFTISRDNAKNTVYLQMNSLKPEDTAVYYCAAQTYKWYDWGQGTQVTVSS,high polyreactivity
8,QVQLVESGGGLVQAGGSLRLSCAASGRTFGRYAMGWYRQAPGKERELVATITRGDSTYYADSVKGRFTISRDNAKNKVYLQMNSLKPEDTAVYYCAADWHRWYLDYDYWGQGTQVTVSS,low polyreactivity
9,QVQLVESGGGLVQAGGSLRLSCAASGRTFGRYVMGWYRQAPGKERDLVAAITGVGSTKYADSVKGRFTISRDNAKNTVYLQMNSLKPEDTAVYYCAKRYLYDRRHAEYWAANDYWGQGTQVTVSS,low polyreactivity
10,QVQLVESGGGLVQAGGSLRLSCAASGRTFGSNAMGRYRQAPGKDRELVAAISVRGGRTYYADSVKGRFTISRDIAKNTGYLQMNSLKPEDTAVYYCNAVYRTYEYYWGQGTQVTVSS,high polyreactivity
11,QVQLVESGGGLVQAGGSLRLSCAASGRTFGSYAMGWYRQAPGKERELVAAIRYRGGSTYYADSVKGRFTISRDNAKNTVYLQMNSLKPEDTAVYYCAAKQGRYNIYSNYDYWGQGTQVTVSS,high polyreactivity
12,QVQLVESGGGLVQAGGSLRLSCAASGRTFGTNAMGRYRKAPGKERELVAAITWRGGSTSYADSEKGRFTISRDNAKNSVYFQMNSLKPEDPAVYYCAVRLRYPGNTFYYLGQGTQVTVSS,high polyreactivity
13,QVQLVESGGGLVQAGGSLRLSCAASGRTFGTNTKGWSRQAPGKERELVAAISSRGGTTYYADSVKGRFTISRDNAKNTVYLQMYSLKPEDTAVYYCNRARSSSRYDYWGQGTQVTVSS,low polyreactivity
14,QVQLVESGGGLVQAGGSLRLSCAASGRTFGTYAIGWYRQAPGKERELVAAITGSGDRTYYADSVKGRFTISRDNAKNTVYLQMNSLKPEDTAVYYCAAYSDRSYGFWGQGTQVTVSS,low polyreactivity
15,QVQLVESGGGLVQAGGSLRLSCAASGRTFGTYAMGWYRQAPGKERELVAAIRSNAGSTYYADSVKGRFTISRDNAKNTVYLQMNSLKPEDTAVYYCAKSYRSSRRYNYWGQGTQVTVSS,high polyreactivity
16,QVQLVESGGGLVQAGGSLRLSCAASGRTFGTYAMGWYRQAPGKERELVAAITGSGDRTYYADSVKGRFTISRDNAKNTVYLQMNSLKPEDTAVYYCAAYSDRSYGYWGQGTQVTVSS,low polyreactivity
17,QVQLVESGGGLVQAGGSLRLSCAASGRTFGTYAMGWYRQAPGKERELVASITSGDSTNYADSVKGRFTISRDYAKNTVYLQMNSLKPEDTAVYYCNARGDVIVTPPKFSFNYEYWGQGTQVTVSS,low polyreactivity
18,QVQLVESGGGLVQAGGSLRLSCAASGRTFGVYAMGWYRQAPGKERELVAAITWSGGSTYYADSVKGRFTISRDNAKNTVYLQMNSLKPEDTAVYYCAADNWYKKQKRPSAYDYWGQGTQVTVSS,high polyreactivity
19,QVQLVESGGGLVQAGGSLRLSCAASGRTFGVYAMGWYRQAPGKERELVARIRYSGGTTRYADSVKGRFTISRDNAKNTVYLQMNSLKPEDTAVYYCAATNWWGTEYDYWGQGTQVTVSS,high polyreactivity
20,QVQLVESGGGLVQAGGSLRLSCAASGRTFGVYAMGWYRQAPGKERELVATITSVDRTNYADSVKGRFTISRDNAKNTVYLQMNSLKPEDTAVYYCAAVGRWPRYYYWGQGTQVTVSS,high polyreactivity
21,QVQLVESGGGLVQAGGSLRLSCAASGRTFGVYAMGWYRQATGKERELVAGIRWRGGSTYYADSVKGRFTISRDNAKNTVYLQMNSLKPEDTAVYYCAAKVYYLYDSIWAWVIIRYDYWGQGTQVTVSS,low polyreactivity

row,Sequence,polyreactivity (PSR sort gate)
1,QVQLVESGGGLVQAGGSLRLSCAASGRTFGWYAMGWYRQAPGKERELVAAINNSGDITYYADSVKGRFTISRDNAKNTVYLQMNRLKPEDTAVYYCAKDNGRAYFGPSPYDYWGQGTQVTVSS,low polyreactivity
2,QVQLVESGGGLVQAGGSLRLSCAASGRTFGYNAMGWYRQAPGKERELVAAIRYSGGSTYYADSVKGRFTISRDNAKNTVYLQMNSLKPEDTAVYYCAAYCLFSSYGYDYWGQGTQVTVSS,high polyreactivity
3,QVQLVESGGGLVQAGGSLRLSCAASGRTFGYNAMGWYRQAPGKVRELVAAITSGGSTYYADSVKGRFTISRDNAKNTVYLQMNSLKPEDTAVYYCNARYPGFWSGWEEYWGQGTQVTVSS,high polyreactivity
4,QVQLVESGGGLVQAGGSLRLSCAASGRTFGYNAMGWYSQAPGKERELVAAISWSGGRTYYADSVKGRFTISRDNAKNTVYLQMNSLKPEDTAVYYCAALPSVTNRYYIYGYWGQGTQVTGSS,high polyreactivity
5,QVQLVESGGGLVQAGGSLRLSCAASGRTFGYYAMGWYRQAAGKDREFVAAITAGRGSTYYPDSVKGRFTISRDNAKNTVYLQMNSLKPEETAVYYCNAVPPGRTPVKGNFYYWGQGTQVTVSS,high polyreactivity
6,QVQLVESGGGLVQAGGSLRLSCAASGRTFGYYAMGWYRQAPGKERELVAAISRSGGSTYYADSVKGRFTISGDNAKNTVYLQMNSLKPEDTAVYYCAVKGYVKSDYWGQGTQVTVSS,high polyreactivity
7,QVQLVESGGGLVQAGGSLRLSCAASGRTFGYYAMGWYRQAPGKERELVAAISSAGSSTYYADSVKGRFTISRDNAKNTVYLQMNSLKPEDTAVYYCAASSRSFIRVYYWGQGTQVTVSS,high polyreactivity
8,QVQLVESGGGLVQAGGSLRLSCAASGRTFGYYAMGWYRQAPGKERELVAAISTSGGGTYYADSVKGRFTISRDNAKYTVYLQMNSLKPVDTAVYYCARDRNTRYKFDYWGQGTQVTLSS,low polyreactivity
9,QVQLVESGGGLVQAGGSLRLSCAASGRTFGYYAMGWYRQAPGKERELVAAISWRGTSTYYADSVKGRFTISRDNAKNTVYLQMNSLKPEDTAVYYCAVGRTVAHRFIAGDYWGQGTQVTVSS,high polyreactivity
10,QVQLVESGGGLVQAGGSLRLSCAASGRTFGYYAMGWYRQAPGKERELVAAISWSGGSTRYADSVKGRFTISRDNAKNTVYFQLNSLKPEDTAVYYCAADSWYSFAGVYRVYGEDYWGQGTQVTVSS,high polyreactivity
11,QVQLVESGGGLVQAGGSLRLSCAASGRTFGYYGMGWYRQAPGKERELVAAITGSGGSTYYADSVKGRFTISRDNAKNTVYLQMNSLKPEDTAVYYCAATYLSRWTLYDYWGQGTQVTVSS,high polyreactivity
12,QVQLVESGGGLVQAGGSLRLSCAASGRTFGYYRMGWYRQAPGKERELVAAITGSGGSTYYADSVKGRFTISRDNAKNTVYLQMNSLKAEDTAVYYCAATYLSRWTLYDYWGQGTQVTVSS,high polyreactivity
13,QVQLVESGGGLVQAGGSLRLSCAASGRTFHDNGMGGYRQAPGKERELVAAISWRGGSTNYADSVKGRFTISRDNAKNTVYLQMNSLKPEETAVYFCNRVPRKFGKLDYWGQGTQVTVSS,low polyreactivity
14,QVQLVESGGGLVQAGGSLRLSCAASGRTFHGYAMGWYRQAPGKERELVARINWSDGRTYYADSVKGRFTISRDNAKNTVFLQMNSLKPEDTAVYYCAADKTVSYAPAWYYYWGQGTQVTVSS,low polyreactivity
15,QVQLVESGGGLVQAGGSLRLSCAASGRTFHGYAMGWYRQAPGNEREFVAAISSDGDSTYYADSVKGRFTISRDNAKNTVYLQMNSLKPEDTAVYYCAAERGYHGGGSGLYDYWGQGTQVTVSS,low polyreactivity
16,QVQLVESGGGLVQAGGSLRLSCAASGRTFHINAMGWYRQAPGKERELVAGINSGGSTNYADSVKGRFTISRDNAKNTVYLQMNSLKPEDTAVYYCNAVVKLKYLYYYVEHYYWGQGTQVTVSS,low polyreactivity
17,QVQLVESGGGLVQAGGSLRLSCAASGRTFHKYAMGWLRQAPGKERELVAAITGSGVRTYYADSVKGRFTISRDNAKNTVYLQMNSLKPEDTAVYYCNADSYNRNGDYWGQGTQVTVSS,high polyreactivity
18,QVQLVESGGGLVQAGGSLRLSCAASGRTFHPYAMGWYRQAPGKERELVAVITTSGSSTYYADSVKGRFTISRDNAKNTVYLQMNSLKPEDTAVYYCAALYWRHQAARYYYWGQGTQVTVSS,high polyreactivity
19,QVQLVESGGGLVQAGGSLRLSCAASGRTFHQYAKGWYRQAPGKERELVAAISRSGGRTYYADSVKGRFTISRDNAKNTVYLQMNSLIPEDSAVYYCNRDIGGTSVLDDYWGQGTQVTVSS,low polyreactivity
20,QVQLVESGGGLVQAGGSLRLSCAASGRTFHRNAMGWYRQAPGKERELVAAITGDGRTNYADSVKGRFTITRDNAKNTVSLQMNSLKPEDTAVYYCFSYDYDYWGQGTQVTVSS,low polyreactivity
